Results: US20150140013A1 (GENERAL HOSPITAL, published 2015)

Target: T1, RAPTOR (UniProt Q8N122 1-1335)
T1 construct: Endogenous protein in lysates of human cancer cell lines
Experiment: co-immunoprecipitation with anti-FAK from whole-cell lysates of HCT116 and MCF7 cells in mitosis, immunoblot with anti-RAPTOR
Method: The immunoprecipitates were washed and resolved by SDS-PAGE. For western blots: primary antibody: RICTOR, mTOR (Cell Signaling), Raptor, FAK, β1-integrin, TTC3 (AbCam).
Standard protocols were used for SDS-PAGE electrophoresis and the following primary antibodies: α-RICTOR, α-mTOR, Phospho-AKT-Ser473 (D9E; Cell Signaling Technology) and α-RAPTOR, α-FAK, α-β1-integrin, α-TTC3, Pan-AKT, and GAPDH (Abcam). For immunoprecipitation studies, cells were synchronized with 200 ng/mL of nocodazole for 12 hours and then released for 2 hours. Cells were rinsed with PBS, fixed with 0.37% formalde-hyde, and quenched with 0.25 mol/L glycine. Cell lysates were prepared in lysis buffer [1% Triton X-100, 150 mmol/L NaCl, 3 mmol/L MgCl, 40 mmol/L HEPES (pH 7.5), 50 mmol/L NaF, EDTA-free protease inhibitor and phosphatase inhibitor (Roche)] and centrifuged at 14,000×g for 10 minutes. Supernatant (250 μg) was incubated with the indicated antibodies [α-FAK (AbCam), α-RICTOR (Santa Cruz Biotechnology)], for 4 hours at 4° C. with rotation and then with 50 μL of a 50% slurry of protein G-sepharose (Roche) for 1 hour Immunoprecipitates were washed and resolved by SDS-PAGE electrophoresis.
To identify an upstream regulator that might activate mTORC2 signaling during asymmetric division, an immunoprecipitation approach was used to identify proteins that physically interact with the mTORC2 complex during mitosis. […]

T1 sequence (Q8N122 whole entry): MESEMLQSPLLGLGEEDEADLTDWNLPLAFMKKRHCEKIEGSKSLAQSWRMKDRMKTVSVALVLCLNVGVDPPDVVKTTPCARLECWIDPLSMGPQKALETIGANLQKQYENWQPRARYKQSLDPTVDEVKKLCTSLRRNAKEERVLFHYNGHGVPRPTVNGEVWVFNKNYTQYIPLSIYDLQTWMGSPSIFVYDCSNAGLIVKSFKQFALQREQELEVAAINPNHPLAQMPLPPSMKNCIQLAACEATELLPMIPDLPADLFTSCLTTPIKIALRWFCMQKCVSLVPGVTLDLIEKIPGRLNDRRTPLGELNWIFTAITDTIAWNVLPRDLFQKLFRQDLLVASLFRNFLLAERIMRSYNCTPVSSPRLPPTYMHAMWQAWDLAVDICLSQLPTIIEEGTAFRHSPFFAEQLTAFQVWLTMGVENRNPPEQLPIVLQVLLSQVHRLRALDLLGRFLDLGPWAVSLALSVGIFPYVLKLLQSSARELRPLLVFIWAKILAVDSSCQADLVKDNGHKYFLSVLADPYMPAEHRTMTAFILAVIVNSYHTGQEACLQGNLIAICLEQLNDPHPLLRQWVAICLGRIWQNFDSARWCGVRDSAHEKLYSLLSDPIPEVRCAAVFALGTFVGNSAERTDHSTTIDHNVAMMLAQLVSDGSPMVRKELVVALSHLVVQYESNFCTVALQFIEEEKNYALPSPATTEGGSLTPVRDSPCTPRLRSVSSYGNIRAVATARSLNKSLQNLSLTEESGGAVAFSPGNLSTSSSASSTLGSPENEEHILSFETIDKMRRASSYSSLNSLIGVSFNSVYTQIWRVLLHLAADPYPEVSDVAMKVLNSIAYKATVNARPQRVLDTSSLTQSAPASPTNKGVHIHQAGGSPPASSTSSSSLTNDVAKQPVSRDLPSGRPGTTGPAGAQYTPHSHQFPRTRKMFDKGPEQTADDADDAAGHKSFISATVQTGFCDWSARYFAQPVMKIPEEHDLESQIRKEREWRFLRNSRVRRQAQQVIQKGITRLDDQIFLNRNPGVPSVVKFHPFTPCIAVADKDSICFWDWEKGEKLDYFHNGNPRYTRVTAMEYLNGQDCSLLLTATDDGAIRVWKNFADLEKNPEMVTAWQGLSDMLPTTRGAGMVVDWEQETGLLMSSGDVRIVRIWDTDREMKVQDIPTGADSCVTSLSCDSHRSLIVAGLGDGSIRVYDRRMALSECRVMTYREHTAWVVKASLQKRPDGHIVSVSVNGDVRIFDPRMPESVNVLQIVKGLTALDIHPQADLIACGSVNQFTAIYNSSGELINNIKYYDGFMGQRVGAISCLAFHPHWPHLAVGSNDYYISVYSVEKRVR

B1: focal adhesion kinase (FAK) (enzyme, human, UniProt Q05397 2-1052, looked up)
chain: AAAYLDPNLNHTPNSSTKTHLGTGMERSPGAMERVLKVFHYFESNSEPTTWASIIRHGDATDVRGIIQKIVDSHKVKHVACYGFRLSHLRSEEVHWLHVDMGVSSVREKYELAHPPEEWKYELRIRYLPKGFLNQFTEDKPTLNFFYQQVKSDYMLEIADQVDQEIALKLGCLEIRRSYWEMRGNALEKKSNYEVLEKDVGLKRFFPKSLLDSVKAKTLRKLIQQTFRQFANLNREESILKFFEILSPVYRFDKECFKCALGSSWIISVELAIGPEEGISYLTDKGCNPTHLADFTQVQTIQYSNSEDKDRKGMLQLKIAGAPEPLTVTAPSLTIAENMADLIDGYCRLVNGTSQSFIIRPQKEGERALPSIPKLANSEKQGMRTHAVSVSETDDYAEIIDEEDTYTMPSTRDYEIQRERIELGRCIGEGQFGDVHQGIYMSPENPALAVAIKTCKNCTSDSVREKFLQEALTMRQFDHPHIVKLIGVITENPVWIIMELCTLGELRSFLQVRKYSLDLASLILYAYQLSTALAYLESKRFVHRDIAARNVLVSSNDCVKLGDFGLSRYMEDSTYYKASKGKLPIKWMAPESINFRRFTSASDVWMFGVCMWEILMHGVKPFQGVKNNDVIGRIENGERLPMPPNCPPTLYSLMTKCWAYDPSRRPRFTELKAQLSTILEEEKAQQEERMRMESRRQATVSWDSGGSDEAPPKPSRPGYPSPRSSEGFYPSPQHMVQTNHYQVSGYPGSHGITAMAGSIYPGQASLLDQTDSWNHRPQEIAMWQPNVEDSTVLDLRGIGQVLPTHLMEERLIRQQQEMEEDQRWLEKEERFLKPDVRLSRGSIDREDGSLQGPIGNQHIYQPVGKPDPAAPPKKPPRPGAPGHLGSLASLSSPADSYNEGVKLQPQEISPPPTANLDRSNDKVYENVTGLVKAVIEMSSKIQPAPPEEYVPMVKEVGLALRTLLATVDETIPLLPASTHREIEMAQKLLNSDLGELINKMKLAQQYVMTSLQQEYKKQMLTAAHALAVDAKNLLDVIDQARLKMLGQTRPH
notes: Endogenous protein of the human cancer cell lines HCT116 and MCF7; lysates of formaldehyde-fixed cells were used for immunoprecipitation; also called PTK2
B1: no binding.
